Experimental data taken from US12104181B2, “Compositions and methods for treating viral infections targeting TRIM7” (THE BOARD OF REGENTS OF THE UNIVERSITY OF TEXAS SYSTEM, priority 2021, dated 2024).

System: coxsackievirus B3 (CVB3-GFP)
Format: cell-based
Conditions: HeLa cells, replicate R1; for Percent Infected R1: GFP-positive cells within RFP-positive gate

Molecule | Percent Infected R1 [%] | Z score R1
RNF214: human RING type E3 ligase expressed from lentiviral vector (protein, UniProt Q8ND24 2-703, looked up) RING finger protein 214: AASEVAGVVANAPSPPESSSLCASKSDEGLPDGLSTKDSAQKQKNSPLLSVSSQTITKENNRNVHLEHSEQNPGSSAGDTSAAHQVVLGENLIATALCLSGSGSQSDLKDVASTAGEEGDTSLRESLHPVTRSLKAGCHTKQLASRNCSEEKSPQTSILKEGNRDTSLDFRPVVSPANGVEGVRVDQDDDQDSSSLKLSQNIAVQTDFKTADSEVNTDQDIEKNLDKMMTERTLLKERYQEVLDKQRQVENQLQVQLKQLQQRREEEMKNHQEILKAIQDVTIKREETKKKIEKEKKEFLQKEQDLKAEIEKLCEKGRREVWEMELDRLKNQDGEINRNIMEETERAWKAEILSLESRKELLVLKLEEAEKEAELHLTYLKSTPPTLETVRSKQEWETRLNGVRIMKKNVRDQFNSHIQLVRNGAKLSSLPQIPTPTLPPPPSETDFMLQVFQPSPSLAPRMPFSIGQVTMPMVMPSADPRSLSFPILNPALSQPSQPSSPLPGSHGRNSPGLGSLVSPHGPHMPPAASIPPPPGLGGVKASAETPRPQPVDKLEKILEKLLTRFPQCNKAQMTNILQQIKTARTTMAGLTMEELIQLVAARLAEHERVAASTQPLGRIRALFPAPLAQISTPMFLPSAQVSYPGRSSHAPATCKLCLMCQKLVQPSELHPMACTHVLHKECIKFWAQTNTNDTCPFCPTLK | 93.9 | 0.067
CHFR: human RING type E3 ligase expressed from lentiviral vector (protein, UniProt Q96EP1 1-664, looked up) E3 ubiquitin-protein ligase …: MERPEEGKQSPPPQPWGRLLRLGAEEGEPHVLLRKREWTIGRRRGCDLSFPSNKLVSGDHCRIVVDEKSGQVTLEDTSTSGTVINKLKVVKKQTCPLQTGDVIYLVYRKNEPEHNVAYLYESLSEKQGMTQESFEANKENVFHGTKDTSGAGAGRGADPRVPPSSPATQVCFEEPQPSTSTSDLFPTASASSTEPSPAGRERSSSCGSGGGGISPKGSGPSVASDEVSSFASALPDRKTASFSSLEPQDQEDLEPVKKKMRGDGDLDLNGQLLVAQPRRNAQTVHEDVRAAAGKPDKMEETLTCIICQDLLHDCVSLQPCMHTFCAACYSGWMERSSLCPTCRCPVERICKNHILNNLVEAYLIQHPDKSRSEEDVQSMDARNKITQDMLQPKVRRSFSDEEGSSEDLLELSDVDSESSDISQPYVVCRQCPEYRRQAAQPPHCPAPEGEPGAPQALGDAPSTSVSLTTAVQDYVCPLQGSHALCTCCFQPMPDRRAEREQDPRVAPQQCAVCLQPFCHLYWGCTRTGCYGCLAPFCELNLGDKCLDGVLNNNSYESDILKNYLATRGLTWKNMLTESLVALQRGVFLLSDYRVTGDTVLCYCCGLRSFRELTYQYRQNIPASELPVAVTSRPDCYWGRNCRTQVKAHHAMKFNHICEQTRFKN | 87.2 | −0.02
RNF38: human RING type E3 ligase expressed from lentiviral vector (protein, UniProt Q9H0F5 1-515, looked up) E3 ubiquitin-protein ligase …: MACKISPGANSASLPGHPNKVICERVRLQSLFPLLPSDQNTTVQEDAHFKAFFQSEDSPSPKRQRLSHSVFDYTSASPAPSPPMRPWEMTSNRQPPSVRPSQHHFSGERCNTPARNRRSPPVRRQRGRRDRLSRHNSISQDENYHHLPYAQQQAIEEPRAFHPPNVSPRLLHPAAHPPQQNAVMVDIHDQLHQGTVPVSYTVTTVAPHGIPLCTGQHIPACSTQQVPGCSVVFSGQHLPVCSVPPPMLQACSVQHLPVPYAAFPPLISSDPFLIHPPHLSPHHPPHLPPPGQFVPFQTQQSRSPLQRIENEVELLGEHLPVGGFTYPPSAHPPTLPPSAPLQFLTHDPLHQEVSFGVPYPPFMPRRLTGRSRYRSQQPIPPPPYHPSLLPYVLSMLPVPPAVGPTFSFELDVEDGEVENYEALLNLAERLGEAKPRGLTKADIEQLPSYRFNPNNHQSEQTLCVVCMCDFESRQLLRVLPCNHEFHAKCVDKWLKANRTCPICRADASEVHRDSE | 88.2 | −0.01
TRIM2: human RING type E3 ligase expressed from lentiviral vector (protein, UniProt Q9C040 1-744, looked up) Tripartite motif-containing …: MASEGTNIPSPVVRQIDKQFLICSICLERYKNPKVLPCLHTFCERCLQNYIPAHSLTLSCPVCRQTSILPEKGVAALQNNFFITNLMDVLQRTPGSNAEESSILETVTAVAAGKPLSCPNHDGNVMEFYCQSCETAMCRECTEGEHAEHPTVPLKDVVEQHKASLQVQLDAVNKRLPEIDSALQFISEIIHQLTNQKASIVDDIHSTFDELQKTLNVRKSVLLMELEVNYGLKHKVLQSQLDTLLQGQESIKSCSNFTAQALNHGTETEVLLVKKQMSEKLNELADQDFPLHPRENDQLDFIVETEGLKKSIHNLGTILTTNAVASETVATGEGLRQTIIGQPMSVTITTKDKDGELCKTGNAYLTAELSTPDGSVADGEILDNKNGTYEFLYTVQKEGDFTLSLRLYDQHIRGSPFKLKVIRSADVSPTTEGVKRRVKSPGSGHVKQKAVKRPASMYSTGKRKENPIEDDLIFRVGTKGRNKGEFTNLQGVAASTNGKILIADSNNQCVQIFSNDGQFKSRFGIRGRSPGQLQRPTGVAVHPSGDIIIADYDNKWVSIFSSDGKFKTKIGSGKLMGPKGVSVDRNGHIIVVDNKACCVFIFQPNGKIVTRFGSRGNGDRQFAGPHFAAVNSNNEIIITDFHNHSVKVFNQEGEFMLKFGSNGEGNGQFNAPTGVAVDSNGNIIVADWGNSRIQVFDGSGSFLSYINTSADPLYGPQGLALTSDGHVVVADSGNHCFKVYRYLQ | 62.1 | −0.337
RNF130: human RING type E3 ligase expressed from lentiviral vector (protein, UniProt Q86XS8 28-419, looked up) E3 ubiquitin-protein ligase …: DNASQEYYTALINVTVQEPGRGAPLTFRIDRGRYGLDSPKAEVRGQVLAPLPLHGVADHLGCDPQTRFFVPPNIKQWIALLQRGNCTFKEKISRAAFHNAVAVVIYNNKSKEEPVTMTHPGTGDIIAVMITELRGKDILSYLEKNISVQMTIAVGTRMPPKNFSRGSLVFVSISFIVLMIISSAWLIFYFIQKIRYTNARDRNQRRLGDAAKKAISKLTTRTVKKGDKETDPDFDHCAVCIESYKQNDVVRILPCKHVFHKSCVDPWLSEHCTCPMCKLNILKALGIVPNLPCTDNVAFDMERLTRTQAVNRRSALGDLAGDNSLGLEPLRTSGISPLPQDGELTPRTGEINIAVTKEWFIIASFGLLSALTLCYMIIRATASLNANEVEWF | 91.4 | 0.04
RNF4: human RING type E3 ligase expressed from lentiviral vector (protein, UniProt P78317 1-190, looked up, lentiviral expression, human RING type E3 ligase expressed from lentiviral vector) E3 ubiquitin-protein ligase …: MSTRKRRGGAINSRQAQKRTREATSTPEISLEAEPIELVETAGDEIVDLTCESLEPVVVDLTHNDSVVIVDERRRPRRNARRLPQDHADSCVVSSDDEELSRDRDVYVTTHTPRNARDEGATGLRPSGTVSCPICMDGYSEIVQNGRLIVSTECGHVFCSQCLRDSLKNANTCPTCRKKINHKRYHPIYI | 93.3 | 0.06
RNF113: human RING type E3 ligase expressed from lentiviral vector (protein, UniProt O15541 2-343, looked up) E3 ubiquitin-protein ligase …: AEQLSPGKAVDQVCTFLFKKPGRKGAAGRRKRPACDPEPGESGSSSDEGCTVVRPEKKRVTHNPMIQKTRDSGKQKAAYGDLSSEEEEENEPESLGVVYKSTRSAKPVGPEDMGATAVYELDTEKERDAQAIFERSQKIQEELRGKEDDKIYRGINNYQKYMKPKDTSMGNASSGMVRKGPIRAPEHLRATVRWDYQPDICKDYKETGFCGFGDSCKFLHDRSDYKHGWQIERELDEGRYGVYEDENYEVGSDDEEIPFKCFICRQSFQNPVVTKCRHYFCESCALQHFRTTPRCYVCDQQTNGVFNPAKELIAKLEKHRATGEGGASDLPEDPDEDAIPIT | 92 | 0.043
TRIM1: human RING type E3 ligase expressed from lentiviral vector (protein, UniProt Q9UJV3 1-735, looked up) Probable E3 ubiquitin-protein …: MGESPASVVLNASGGLFSLKMETLESELTCPICLELFEDPLLLPCAHSLCFSCAHRILVSSCSSGESIEPITAFQCPTCRYVISLNHRGLDGLKRNVTLQNIIDRFQKASVSGPNSPSESRRERTYRPTTAMSSERIACQFCEQDPPRDAVKTCITCEVSYCDRCLRATHPNKKPFTSHRLVEPVPDTHLRGITCLDHENEKVNMYCVSDDQLICALCKLVGRHRDHQVASLNDRFEKLKQTLEMNLTNLVKRNSELENQMAKLIQICQQVEVNTAMHEAKLMEECDELVEIIQQRKQMIAVKIKETKVMKLRKLAQQVANCRQCLERSTVLINQAEHILKENDQARFLQSAKNIAERVAMATASSQVLIPDINFNDAFENFALDFSREKKLLEGLDYLTAPNPPSIREELCTASHDTITVHWISDDEFSISSYELQYTIFTGQANFISKSWCSWGLWPEIRKCKEAVSCSRLAGAPRGLYNSVDSWMIVPNIKQNHYTVHGLQSGTRYIFIVKAINQAGSRNSEPTRLKTNSQPFKLDPKMTHKKLKISNDGLQMEKDESSLKKSHTPERFSGTGCYGAAGNIFIDSGCHYWEVVMGSSTWYAIGIAYKSAPKNEWIGKNASSWVFSRCNSNFVVRHNNKEMLVDVPPHLKRLGVLLDYDNNMLSFYDPANSLHLHTFDVTFILPVCPTFTIWNKSLMILSGLPAPDFIDYPERQECNCRPQESPYVSGMKTCH | 82.1 | −0.083
PCGF6: human RING type E3 ligase expressed from lentiviral vector (protein, UniProt Q9BYE7 1-350, looked up) Polycomb group RING finger …: MEGVAVVTAGSVGAAKTEGAAALPPPPPVSPPALTPAPAAGEEGPAPLSETGAPGCSGSRPPELEPERSLGRFRGRFEDEDEELEEEEELEEEEEEEEEDMSHFSLRLEGGRQDSEDEEERLINLSELTPYILCSICKGYLIDATTITECLHTFCKSCIVRHFYYSNRCPKCNIVVHQTQPLYNIRLDRQLQDIVYKLVINLEEREKKQMHDFYKERGLEVPKPAVPQPVPSSKGRSKKVLESVFRIPPELDMSLLLEFIGANEGTGHFKPLEKKFVRVSGEATIGHVEKFLRRKMGLDPACQVDIICGDHLLEQYQTLREIRRAIGDAAMQDGLLVLHYGLVVSPLKIT | 94.6 | 0.08
